Experimental data: US12312397B2, “Anti-O2 antibodies and uses thereof” (priority 2016, dated 2025)
Positions count from the first letter of the chain named.

B1: KPL26: Class II anti-O2 antigen human mAb; VH SEQ ID NO: 89, VL SEQ ID NO: 90 (antibody, V domains shown)
VH: EVQLVESGGGLVQSGGSLRLSCETSGFIFGSSWMTWVRQAPGKGLEWVATINPDGSATSYEDSVRGRFAVSRDNAKNSVYLQMNSLRAEDTAVYFCTRNKAYNALDYWGQGTLVTVSS
VL: QSALTQPPSASGSPGQSVTLSCTGTSSDVGGNNYVSWYQQHPGKAPKLIIYEVSKRPSGVPNRFSGSKSGNTASLTVSGLQAEDEADYYCSSFGGSKMFGGGTKLTVL
modifications: Description of Artificial Sequence: SyntheticKPL26 VH polypeptide; Description of Artificial Sequence: SyntheticKPL26 VL polypeptide
B2: KPS44: Class III anti-O2 antigen human mAb; VH SEQ ID NO: 116, VL SEQ ID NO: 117 (antibody, V domains shown)
VH: EVHLVESGGGLVKPGGSLRLSCAASGFTFKNAWMSWIRQAPGKGLEWVGRVKSEVDGGTIDYGVPVRGRFTISRDDSQGTLSLEMNSLKDDDTGVYYCRAFWSGFPTGYWGQGALVSVSS
VL: QSVLTQPPSLSAAPGQTITIACSGTSSNIGSDSVSWFQQFPGTAPRVLIYENNKRPSGISDRFSGSKSGTSVTLGITGLQTGDEADYYCATWDSSLSAYVFGSGTKVTVL
modifications: Description of Artificial Sequence: SyntheticKPS44/KPS44-G1 VH polypeptide; Description of Artificial Sequence: SyntheticKPS44 VL polypeptide
B3: KPS44v2017: sequence-optimized KPS44, Class III; VH SEQ ID NO: 202, VL SEQ ID NO: 203 (antibody, V domains shown)
VH: B2 VH with W102F
VL: B2 VL with D32N, S33Y, W92F
modifications: Description of Artificial Sequence: SyntheticKPS44-v2017/KPS44-G2/KPS44-G3 VH polypeptide; Description of Artificial Sequence: SyntheticKPS44-v2017/KPS44-G1 VL polypeptide

Assays:
[1] = test system: K. pneumoniae 43816ΔcpsBLux (O1); test: Opsonophagocytic killing (OPK) assay, O1 capsule mutant; assay type: cell-based, Klebsiella pneumoniae; design: key to D Capsule OPK O1: +++: Strongly positive activity; +: Positive activity; +/−: Somewhat positive depending upon the test conditions
Procedure: (§1) OPK activity of anti-O2 LPS mAbs was tested against O1 and O2 strains. Briefly, log phase cultures of luminescent K. pneumoniae strains 8570ΔcpsBLux (O2) and 43816ΔcpsBLux (O1) were diluted to ˜2×10^6 cells/ml. K. pneumoniae cells, 5e5/well dimethylformamide (DMF) differentiated HL-60 cells, cleared baby rabbit serum (1:10 Cedarlane), and a series dilution of antibodies (2 ng-2.5 μg/mL) were mixed in 96-well plates and incubated at 37° C. for two hours with shaking (250 rpm). The relative light units (RLUs) were then measured using a multi-mode microplate reader (Synergy 2, Biotek or envision multilabel plate reader, Perkin Elmer). The percentage of killing was determined by comparing RLU derived from assays with no antibodies to RLU derived from assays with anti-K. pneumoniae mAbs and assays performed with a negative control mAb. Positive killing was determined where the percentage of killing is above 40%.

K. pneumoniae O1 = test: Lethal O1 pneumonia model; assay type: in vivo, Klebsiella pneumoniae; design: key to Mouse protection models (O1): +++: Strongly positive activity; +: Positive activity; +/−: Somewhat positive depending upon the test conditions
Procedure: (§2) C57/BL6 mice were obtained from Jackson Laboratories and maintained in a special pathogen-free facility. All animal experiments were conducted in accordance with Institutional Animal Care and Use Committee (IACUC) protocol and guidance. K. pneumoniae strains were grown on agar plates overnight and diluted in saline at proper concentration. The inoculum titer was determined by plating a serial dilution of bacteria onto agar plates prior to and post challenge. In acute pneumonia models, C57/BL6 mice were inoculated with 1e4 to 2e8 colony-forming units (CFU) of K. pneumoniae clinical isolates in 50 μl saline intranasally. Anti-K pneumoniae monoclonal antibodies (mAbs) and human IgG1 control antibodies were given 1-24 hour post bacterial challenge (therapeutic dosing). Mouse survival was monitored daily until up to day 8. Survival data of representative experiments were plotted in Graphpad Prism software.
Mice were challenged with 2e8 CFU of Klebsiella pneumoniae Carbanpenemase (KPC) strain Kp961842_O2 or with 3e8 CFU of KPC strain Kp977778_O2, followed by the administration of anti-O2 mAbs. […]

[2] = test system: K. pneumoniae 8570ΔcpsBLux (O2); test: Opsonophagocytic killing (OPK) assay, O2 capsule mutant; assay type: cell-based, Klebsiella pneumoniae; design: key to D Capsule OPK O2: +++: Strongly positive activity; +: Positive activity; +/−: Somewhat positive depending upon the test conditions; conditions: for D Capsule OPK O2: capsule mutant strain 8570ΔcpsB lux (O2); for OPK activity against O2 capsule mutant: secondary screening
Procedure: as §1

KPC strain Kp961842_O2 = test: Lethal pneumonia model, KPC strain Kp961842_O2; assay type: in vivo, Klebsiella pneumoniae; conditions: C57/BL6 mice, 2e8 CFU; mAb 2 mg/kg 1 hour post infection; survival
Procedure: as §2
(§3) Mice were challenged with 2e8 CFU of Klebsiella pneumoniae Carbanpenemase (KPC) strain Kp961842_O2 or with 3e8 CFU of KPC strain Kp977778_O2, followed by the administration of anti-O2 mAbs. When administered at a concentration of 2 mg/kg 1 hour post bacterial infection, Class III anti-O2 LPS mAbs KPN42, KPN179-IgG1, and KPS44v2017 protected mice from lethal bacterial challenge with the multi-drug resistant KPC strains Kp961842_O2 (FIG. 6, left panel, and FIG. 10) and Kp977778_O2 (FIG. 6B, right panel).

[3] = test system: O1 LPS activation of NF-κB in RAW264.7-lux cells; test: LPS neutralization assay (NF-κB luciferase, RAW264.7-lux), O1 LPS; assay type: cell-based, murine; design: key to LPS Neut O1: +++: Strongly positive activity; +: Positive activity; +/−: Somewhat positive depending upon the test conditions; conditions: for neutralizing activity against O1 LPS (NF-κB activation): human IgG1 format
Procedure: (§4) Activation of TLR4 receptors by bacterial LPS leads to downstream activation of the NF-κB transcriptional regulator. A decrease in induction of NF-κB-responsive luciferase activity was used to quantify LPS neutralization activity by LPS mAbs. A murine RAW264.7 macrophage cell line was engineered to carry a firefly luciferase reporter gene under the control of an NF-κB-responsive promoter (RAW264.7-lux). Serially diluted antibody stocks were mixed with LPS in a 1:1 ratio and incubated at 4° C. for 1 hr. Antibody/LPS mixtures were then diluted 1:10 into assay plates containing pre-seeded RAW264.7-lux cells (4e5 cells/well), which were then placed at 37° C. with 5% CO2 for 2.5 hours. Following incubations, Steady Glo solution (Promega) was added to each well and incubated for another 20 min protected from light. The relative light units (RLUs) were measured using a multi-mode microplate reader (Synergy 2, Biotek or envision multilabel plate reader, Perkin Elmer). The percentage of inhibition was determined by comparing RLU derived from assays with no antibodies to RLU derived from assays with anti-K. pneumoniae mAbs and assays performed with a negative control mAb. […] All mAbs were tested in human IgG1 format.

O1 LPS = test: ELISA binding to O1 LPS; design: species or system Klebsiella pneumoniae; conditions: secondary screening
Procedure: (§5) The coated plates were incubated with cell culture supernatants from polyclonally stimulated lymphocytes (AMVBRA) or from monoclonal immortalized B cells (donor interrogations) containing fully human antibodies or with diluted plasma samples (PBMC donor selections) for 1 hour at room temperature. The plates were then washed with PBS containing 0.1% Tween-20 (PBS-T). Secondary antibody was added; either Alkaline Phosphatase-conjugated Goat Anti-Human IgG-AP (Southern Biotech, 2040-04, 1:1000 in PBS-B) or Peroxidase AffiniPure F(ab′)2 Fragment Goat Anti-Human IgG, Fc Fragment Specific (Jackson ImmunoResearch #309 036 098, 1:5000 in PBS-B) were used. Secondary antibodies were typically incubated for 1 h. Plates were washed three times with PBS-T, and P-NitroPhenyl Phosphate (pNPP, Sigma-Aldrich, cat #N2765-100TAB) or Sureblue (KPL, 53-00-03) substrates were added and incubated for 10 min or until the development of a colorimetric reaction. In the case of the HRP substrate Sureblue, the reaction was stopped by adding an equal volume of 0.2N HCl. The absorbance at 405 nm (pNPP) or 450 nm (Sureblue) was measured by a microplate reader (Biotek, Elx808).
(§6) The coated plates were incubated with serial dilutions of the monoclonal antibodies for 1 hour at room temperature. The plates were then washed with PBS containing 0.1% Tween-20 (PBS-T). Alkaline Phosphatase-conjugated Goat Anti-Human IgG (Southern Biotech, 2040-04, 1:1000 in PBS-B) was added. The secondary antibody reactions were incubated for 1 h. Plates were washed three times with PBS-T, and P-NitroPhenyl Phosphate (pNPP, Sigma-Aldrich, cat #N2765-100TAB) substrate was added and incubated for 30 min or until the development of a colorimetric reaction. The absorbance at 405 nm was measured by a microplate reader (Biotek, Elx808). The data was plotted with Graphpad Prism software. Representative mAbs from each class were tested for their binding to O1 LPS (FIG. 2A) and O2 LPS (FIG. 2B), and EC50 values were obtained (FIG. 2C). The majority of the anti-O2 LPS mAbs bound to both O1 and O2 LPS by ELISA. […] None of these LPS mAbs bound to the 03, 04, 05, 07, or 012 LPS serotypes (see e.g., FIG. 1A).

O2 LPS = test: ELISA binding to O2 LPS; design: species or system Klebsiella pneumoniae; conditions: secondary screening, ELISA
Procedure: as §5, §6

[4] = test system: O2 LPS activation of NF-κB in RAW264.7-lux cells; test: LPS neutralization assay (NF-κB luciferase, RAW264.7-lux), O2 LPS; assay type: cell-based, murine; design: key to LPS Neut O2: +++: Strongly positive activity; +: Positive activity; +/−: Somewhat positive depending upon the test conditions; conditions: for LPS Neut O2: Table 7 summary; for neutralizing activity against O2 LPS (NF-κB activation): human IgG1 format
Procedure: as §4

K. pneumoniae O2 = test: Mouse protection models (O2), Table 7 summary; assay type: in vivo, Klebsiella pneumoniae; design: key: +++: Strongly positive activity; +: Positive activity; +/−: Somewhat positive depending upon the test conditions; conditions: mouse pneumonia models
Procedure: As described in more detail in below, anti-O2 LPS mAbs were tested for: 1) binding to O1 and O2 LPS (see Example 5); 2) LPS neutralization (LPS-Neut) against O1 and O2 LPS (see Example 7); 3) OPK against capsule mutant strain 43816ΔcpsB lux (O1) and 8570ΔcpsB lux (O2) (see Example 8); and 4) protective activity in pneumonia models (see Example 9). O2 LPS mAbs were subsequently divided into three classes based on their in vitro activities. Class I mAbs were characterized as Binding (O1+O2+)/OPK (O1−O2+); Class 2 mAbs were characterized as Binding (O1+O2+)/OPK (O1+O2+); and Class III mAbs were characterized as Binding (O1±O2+)/OPK (O1−O2+).
as §2, §3

KPC strain Kp977778_O2 = test: Lethal pneumonia model, KPC strain Kp977778_O2; assay type: in vivo, Klebsiella pneumoniae; conditions: C57/BL6 mice, 3e8 CFU; mAb 2 mg/kg 1 hour post infection; survival
Procedure: as §2, §3

Row | Molecule | OPK activity against O1 strain ([1]; 43816ΔcpsBLux (O1), positive killing above 40%) | D Capsule OPK O1 ([1]; capsule mutant strain 43816ΔcpsB lux (O1)) | OPK activity against O1 capsule mutant ([1]; secondary screening) | protection in lethal O1 pneumonia model (K. pneumoniae O1; mice, survival) | Mouse protection models (O1) (K. pneumoniae O1; mouse pneumonia model, O1) | OPK activity against O2 strain ([2]; 8570ΔcpsBLux (O2), positive killing above 40%) | D Capsule OPK O2 [2] | OPK activity against O2 capsule mutant [2] | protection from lethal bacterial challenge, Kp961842_O2 (KPC strain Kp961842_O2) | LPS Neut O1 ([3]; Table 7 summary) | neutralizing activity against O1 LPS (NF-κB activation) [3] | neutralization of LPS-O1 ([3]; secondary screening) | binding to LPS-O1 (O1 LPS) | binding to LPS-O2 (O2 LPS) | LPS Neut O2 [4] | neutralizing activity against O2 LPS (NF-κB activation) [4] | neutralization of LPS-O2 ([4]; secondary screening) | Mouse protection models (O2) (K. pneumoniae O2) | protection from lethal bacterial challenge, Kp977778_O2 (KPC strain Kp977778_O2)
1 | B1 | induced OPK activity | + | showed OPK activity | moderate protection | + | induced OPK activity | + | showed OPK activity | did not show protection | + | blocked | neutralize | confirmed to bind | confirmed to bind | + | blocked | neutralize | – | –
2 | B2 | – | – | – | – | – | – | +++ | strong OPK activity | – | – | no activity | – | – | – | +/− | moderate neutralizing activity | – | +++ | –
3 | B3 | – | – | – | – | – | – | +++ | – | protected | – | – | – | – | – | +/− | – | – | +++ | protected
